{
  "source": "the DeepSol protein solubility set",
  "data": [
    {"assay": "soluble on expression in E. coli; label from the status in PepcDB or PDB records", "values": [
      {"sequence": "MKRKPAVAGYFYPERKDELYSLLSSFAIPEQHVSGTIIGAVVPHAGIIYSGRTAMYSYRAIEKSAVRDFVIIGPNHRPLTPYASLYPEGEWSTPLGDALINDRMAEALYRDSNYIVKDEESHLMEHSVEVQIPFLQYLFGDGFRFVPVILGDQEIDVARDIGEAIMKIEDPFIFIASSDFTHYEDAKRVEKKDMDLISAILTLDLDKFYSVLEKENVTACGYGAIAALMYYTKKRGGRMIFLNHSNSGDVTGDYSEVVGYASLVSVIPLEHHHHHH", "soluble on expression in E. coli": "soluble"},
      {"sequence": "MKRLILPIACGICTVTSDAQTDKQPHPNVIFIYADDLGYKDLSCTGSRFYETPHIDKLAREGVCFTQSYAACPVSSPSRAALLTGKYPARINLTDYIPGDRAYGPHKNQRLASLPFNLHLSKDEITMAEAFRQNGYSTFMAGKWHLAESAEYYPEQNGFDINIGGNNTGHPSKGYFSPYGNPQLKDGPEGEYLTDRLTDEVIRYISEPKEKPFFVYLSYYTVHLPLQAKAEKIAKYRRKLSRAVPADSSFVKKGETYHKLVQDIPAYAAMVESLDENIGRLLDTLHRSGLDERTIVVFTSDNGGMATSNTTRNIPTSNLPLRAGKGYLYEGGIKVPAIIRWSGHLKGRQVSDTPIIGTDYYPTLLDLCGLPLLPGQHVDGVSMKPVLQGGRLSRPSLFWHYPHYSGGLGGRPSAAIREGDYKLIEFFEDHHVELYNVIQDESEEKDLSQIYPEIADGLRKKLYLWYKEVGARMPVDNPHYVSPVKDSDSFENKLEHHHHHH", "soluble on expression in E. coli": "not soluble"},
      {"sequence": "MKRLKNELNALVNRGVDRHLRLAVTGLSRSGKTAFITAMVNQLLNIHAGARLPLLSAVREERLLGVKRIPQRDFGIPRFTYDEGLAQLYGDPPAWPTPTRGVSEIRLALRYKSNDSLLRHFKDTSTLYLEIVDYPGEWLLDLPMLAQDYLSWSRQMTGLLNGQRGEWSAKWRMMCEGLDPLAPADENRLADIAAAWTDYLHHCKQQGLHFIQPGRFVLPGDMAGAPALQFFPWPDVDAWGESKLAQADKHTNAGMLRERFNYYCEKVVKGFYKNHFLRFDRQIVLVDCLQPLNSGPQAFNDMRLALTQLMQSFHYGQRTLFRRLFSPVIDKLLFAATKADHVTIDQHANMVSLLQQLIQDAWQNAAFEGISMDCLGLASVQATTSGIIDVNGEKIPALRGNRLSDGAPLTVYPGEVPARLPGQAFWDKQGFQFEAFRPQVMDVDKPLPHIRLDAALEFLIGDKLR", "soluble on expression in E. coli": "not soluble"},
      {"sequence": "MKRNGETKRRRNVAEEAEQGEDPAMWENLDRNFRQVQSVLDRNRSLIQQVNDNHQSRMADNMSKNVALIQELNGNISKVVNMYSDLNTSFSSGFHGGKNGHDGGGAAGTRA", "soluble on expression in E. coli": "soluble"},
      {"sequence": "MKSFQLVATAASGLEAIVGKEVARLGYDPKVENGKVYFEGDLSAIARANLWLRVADRVKIVVGVFKATTFDELFEKTKALPWEDYLPLDAQFPVAGKSVKSTLYSVPDCQAIVKKAIVNRVSEKYRRSGRLMETGALFKLEVSILKDEVTLTIDTSGAGLHKRGYRLAQGSAPIKETMAAALVLLTSWHPDRPFYDPVCGSGTIPIEAALIGQNIAPGFNREFVSETWDWMPKQVWADARQEAEDLANYDQPLNIIGGDIDARLIEIAKQNAVEAGLGDLITFRQLQVADFQTEDEYGVVVANPPYGERLEDEEAVRQLYREMGIVYKRMPTWSVYVLTSYELFEEVYGKKATKKRKLYNGYLRTDLYQYWGPRKPRPKKED", "soluble on expression in E. coli": "soluble"},
      {"sequence": "MKSGIYQIKNTLNNKVYVGSAKDFEKAWKRHFKDLEKGCHSSIKLQRSFNKHGNVFECSILEEIPYEKDLIIERENFWIKELNSKINGYNIADATFG", "soluble on expression in E. coli": "soluble"},
      {"sequence": "MKSKVAIVRTKPSTVLEDYHRLMNLAEYQNYISKDVDTALKINISWHFFYPGSSTTPWQLEGVIRALKRDGYNPELIHGCHNRTVVIDAHLGERENKQINVIKAHNLRNIHLYEGEEWIDIREAVGDLTKKFLCLNEVYPKGFSIPKRFIGENIIHLPTVKTHVFTTTTGAMKNAFGGLLNEKRHWTHPVIHETLVDLLMIQKKIHKGIFAVMDGTFAGDGPGPRCMVPHVKNVLLASADQVAIDAVAAKLMGFDPLKDCKYIRLAHDAGLGCGDVRQIEIVGDVDALNENWNFVGPYKKMTFASKCQHLIYWGPLKKPVEWTLKTILAPWSYIASVVYHDMYWYPKNYGRVEEILNSDWGRLFANWEQLQLPADDLSVPGWEHVGDKPLKLDKETSKMIRKAFRVLGTAIREAPEFSAKKSKKACK", "soluble on expression in E. coli": "soluble"},
      {"sequence": "MKSLQIYLFLFLSVFALGACIQNDIPYPYIKGEITAFEVEGQTGDAEINKNSRTIVVEVGDEVDIEELRITRFVVNEEATYSIDEQYCVSPNKFPSAGFSALADLPAGADTRVDFSKTVPVLLRTYQDYQWMITVKQTIERVVEVENQALPAIIDDKNHTVLVYVSQKQDLSAVKITKMILGGSKATITPDPSTVTNFRRPQEFVVNRFDKEELWTVDVVRTTSTGTTGSADVWATRATLNGGMKQGTTPRVEYRKKSEDTWTVVPETDVKLESGTTFSTTLTGLQDGTDYVWRVVVEEVPSTESGFTTEKIQEIPNLNFDTWSQNPTGTFKKSWYPNADGSNSFWATGNDGVTSSLAGSRDSSTRPEEKSVVNGKAAYMVTLGSVPLVGVAAGNLFIGDYKTNAQSPKDSPKFGRSFTGARPTGLKGWYKYTSKPVDYVGNPDNLKNDECHIYLRLWDDKDNEIGYGEFIGKETVTQYTQFRFDVTYTNKTAKPAKITIVATSSHYGGDFTGMKVTGSVGVGSELWVDEFELLYELEHHHHHH", "soluble on expression in E. coli": "soluble"},
      {"sequence": "MKSSKASEEDLAAATEKMQSMKGKKSQAAAALEAEQAKAEKRLSCLLKARTKLSFRVIRDGIKCHGGIHLKKQSEKAELDISVTNTAINNLPSDADIVITHKDLTDRAKAKLPNATHISVDNFLNSPKYDELIEKLKSNLIEREYCHASTRKGNIKLNQTVSSKEEAIKLAGQTLIDNGYVTEDYISKMFDREETSSTFMGNFIAIPHGTEEAKSEVLHSGISIIQIPEGVEYGEGNTAKVVFGIAGKNNEHLDIL", "soluble on expression in E. coli": "soluble"},
      {"sequence": "MKSTDQFQTHEVPWEEFIEALREEMKKQVGADIIDTVVCNLEDGFEVYTYVQGDLDFEYKEALERKYGSDAKTPNVLTIMLLASIYNTSEENIRLHADHKENPIVEVYVKQGNTL", "soluble on expression in E. coli": "not soluble"},
      {"sequence": "MKSVTSAQRPYQEVGAMIHDLIIKTPYNPGERLPPEREIAEMLDVTRTVVREALIMLEIKGLVEVRRGAGIYVLDSSGSHNTDSPDANVCNDAGPFELLQARQLLESNIAEFAALQATREDIVKMRQALQLEERELASSAPGSSESGDMQFHLAIAEATHNSMLVELFRQSWQWRENNPMWIQLHSHLDDSLYRKEWLGDHKQILAALIKKDARAAKLAMWQHLENVKQRLLEFSNVDDIYFDGYLFDSWPLDKVDA", "soluble on expression in E. coli": "not soluble"},
      {"sequence": "MKTFGLLGGLAYPSTAEYYLKINRQVHATLGKHHSAPLWIHSFDFEPIAQAQASGSWTILEEKLLQAALELERLGCQGLAIASNTMHLLAPALEGALSIPLVHIADSVGEESSLKGYKKLALLGTLFTMEKDFYASRLQERFDLEVITPAKEERNLVHECIYRELVNNIFTEDSRRDFIQIIHGLKERGAEAVILGCTEIPLLLEGASSPLPLLDTMELHVGSIVQSILEI", "soluble on expression in E. coli": "not soluble"},
      {"sequence": "MKTGVTGPYTFGVGLITYLCSKEIYVMEHEYYSGLSLGIMAIIAVKKLGPVIAKWADGEIDKIESEWKEGREAELKVLSDAIEAEKKEQWRADGALLLMEAKKENIALQLEAAFRERAMNVYSEVNRPLDYQVECRHVERRLSQKHMVNWITTNVLASISPQQEKETLNKCIADLSALALRVKSALEHHHHHH", "soluble on expression in E. coli": "not soluble"},
      {"sequence": "MKTIRLTTAQALVKFLNQQYVEFDGHIQKFVKGIFTIFGHGNVLGLGQALEEDPGELEVYQGRNEQGMAHAAIAFAKQKHRRQIMACTSSVGPGAANMVTAAATASANHIPVLLLPGDTFATRQPDPVLQQIEHWHDLTVSTNDAFRAVSKYWDRISRPEQLMSAMIQAMRVLTDPANTGAVTIALPQDVQGEAYDFPESFFQKRIHRIERRVPAKAAIHEAVELIRRKKKPIIICGGGVRYSEAAEELKQFAEKFHIPYGETQAGKSAVESAHPYNLGGIGVTGNLAANIIAKEADLVIGIGTRYTDFTTGSKQLFQHPEVEFLTINVSVFDACKLDAVRVVADAKLALLALTEELEKIGYRSGYTNEIDIAKKAWEEELNRLHHVRYRQSGFQPEVAGHLDEVLTEYSEFFDSSLTQTEVIGAINEWIDDDAIIIGAAGSLPGDLQRMWVARRPNTYHMEYGYSCMGYEIAGALGVKMAEPDKEVYAMVGDGSYLMLHSELVTSIQEKKKINVLLFDNGGFGCINNLQMGHGMGSFATEFRYRNEETGRLDGSLIPIDFAQSAAGYGVKTYKVHTLEQLKEALEDAKQQSVSTLIDIKVLPKTMTHDYESWWHVGVAEVSRNPKIAEAYKRKEQQLQRARKY", "soluble on expression in E. coli": "soluble"},
      {"sequence": "MKTLLSLGHGYSAQALAHRLLPQGWTVIGTTRSAAKAAELEAGGIEPLLWPGDLGPALARASHILASAAPGREGDPFLATHGAELARADARWVGYLSTTGVYGDHAGGWVDEDTPLTPSTERGQARVQAERQWQALGLPLHIFRLAGIYGPGRGPFEKVRDGTARRIVKPGQVFSRIHVADIAQVLEASMQHPEPGAIYNVCDDDPAPPEDVLGYAAELLGLPPPPEVPYDEAEMTPMARSFYAESKRVRNDRIKARLGIALLHPDYRSGLRSLLAGGD", "soluble on expression in E. coli": "not soluble"},
      {"sequence": "MKTLLYQKVYDQLKLSIQEGKIPVGSKMPTENELMAQFDVSSITLKKALELLKKDGYISRRPRVGTFVINDSPNSEQIETRKFDKPLFGCIMTNFDDTFGTILLSGMLEHSDSKAHIIVKKSLGDTEREEEILQEFIEMNVAGILILPASSKFVSPTLLELASQKFPLVVIDRTLEGLPISSISSDNTEAGRIITEKLFELGHKHIGMITSTSPVSTLDSRVNGFIRGHASFHTAFHSDYVFREIESVMPNSTVSIQTDIDKIARFLETHPEITALVATEYNIALLIKQACNKLGKSIPTNLSVVCFDHPDNFFDTSAFQFTHIKQAQYEIGVKAVDMLLNQVLKPDTINKETLPPLLVEGDSVEPLKSTSK", "soluble on expression in E. coli": "not soluble"},
      {"sequence": "MKTPQGNTSASRREVDTSMRNRFEFAGSSLRDRIGSILSMDQTPRPATRANIFMGRTPTPARHLPESRRMFVPDYTSTPAPTAPRQEFRFEDLSRIVAPPIEQTFIQLDSDGELTLPAESSIAVSPPPRPSSEPLRHLSQVSLSARPASTEPVRRDVHWRVHPSAKIRKCTVPKTPSFARPTKSWLNRVNRED", "soluble on expression in E. coli": "not soluble"},
      {"sequence": "MKTPRLPIAIQQAVMRRLRENLAQANLKLDRHYPEPKLVYTQRGTSAGTAWLESYEIRLNPVLLLENIDTFIAEVVPHELTHLLVWKHFGRKAPHGKEWKWMMESVLGVPARRTHQFALQSVRRNTFPYHCQCQQHQLTVRRHNRVVRGEAVYRCVHCGEPLVAGLEHHHHHH", "soluble on expression in E. coli": "not soluble"},
      {"sequence": "MKTTPDILDQIRVHGADAYPEEGCGFLLGTVTDDGDNRVAALHRATNRRSEQRTRRYELTADDYRAADAAAQEQGLDVVGVYHSHPDHPARPSATDLEEATFPGFTYVIVSVRDGAPEALTAWALAPDRSEFHREDIVRPDPEAPLEHHHHHH", "soluble on expression in E. coli": "soluble"},
      {"sequence": "MKTVMLMLTSLLMAGCSVLGKREAAEPPYELLKHDGAFEVRRYGPMVIAETILDEKSYSAASGKGFNRLAGYIFGKNRSKTSISMTAPVLQERSSEKISMTAPVLQQPQKGGWSMAFVLPEGFTLQSAPEPLDPEVKLRELPPSTIAVVTFSGLHSAANLEKYSRQLQAWLKKQGYRALSEPKLASYDPPWTIPFLRRNEVQIRIEPDHGESGKELEHHHHHH", "soluble on expression in E. coli": "soluble"},
      {"sequence": "MKVAGTSAPPETAPAASRPGLRELKKQRTRDLLLRSALELFTERGYEETTVDDIAEAADVSQRTFFRYFASKEDAAFFVARLAESHFVRAVLARPPEEAPLDALRRALAESWSTIGEAVEQLVPLELHMRFYRVIESTPALLAAHLRRATELEEEIARVVAVREGLDVDTDPRPRVIVAVFGAVMRVTERIWSARDDASLAALRDLTADYLDQVAPALTGNWRRAET", "soluble on expression in E. coli": "soluble"}
    ]}
  ]
}
